Laboratory results: patent US20160052994A1
Values belong to the substance of their own block, whether it stands above or below them.

Assays:
[1] = target: Type I collagen (Nitta Gelatin Inc., type I-A: porcine origin) (porcine); experiment: solid-phase binding assay on coated type I collagen, detection with anti-FLAG antibody M2
[2] = target: Gelatin (Sigma, G1890-100G: porcine origin) (porcine); experiment: solid-phase binding assay on coated gelatin, detection with anti-laminin α5 antibody 5D6
[3] = target: Type I collagen (Nitta Gelatin Inc., type I-A: porcine origin) (porcine); experiment: solid-phase binding assay on coated type I collagen, detection with anti-laminin α5 antibody 5D6

Substance: CBD-fused laminin 111E8 fragment 111βγ (from UniProt P25391 1878-2700)
fold binding activity against the form with a single CBD (111β) [1]: > 10 fold

Substance: CBD-fused laminin 211E8 fragment 211βγ (from UniProt P24043 1900-2722)
fold binding activity against the form with a single CBD (211β) [1]: > 10 fold

Substance: CBD-fused laminin 311E8 fragment 311βγ (from UniProt Q16787 579-1364)
fold binding activity against the form with a single CBD (311β) [1]: > 10 fold

Substance: CBD-fused laminin 321E8 fragment 321βγ (from UniProt Q16787 579-1364)
fold binding activity against the form with a single CBD (321β) [1]: > 10 fold

Substance: CBD-fused laminin 421E8 fragment 421βγ (from UniProt Q16363 629-1449)
fold binding activity against the form with a single CBD (421β) [1]: > 10 fold

Substance: CBD-fused laminin 511E8 fragment CBD-E8(αβγ)
fold binding activity against the monovalent forms [2]: 3 fold
concentration at which the binding activity reached saturation [3]: 10 nM
fold binding activity against the forms with a single CBD (monovalent forms) [3]: 10 fold

Substance: CBD-fused laminin 511E8 fragment CBD-E8(βγ) (from UniProt O15230 2534-3327)
fold binding activity against the monovalent forms [2]: 3 fold
concentration at which the binding activity reached saturation [3]: 10 nM
fold binding activity against the forms with a single CBD (monovalent forms) [3]: 10 fold

More lines, now with the values ahead:

fold binding activity against the form with a single CBD (121β) [1]: > 10 fold
Substance: CBD-fused laminin 121E8 fragment 121βγ (from UniProt P25391 1878-2700)

fold binding activity against the form with a single CBD (221β) [1]: > 10 fold
Substance: CBD-fused laminin 221E8 fragment 221βγ (from UniProt P24043 1900-2722)

fold binding activity against the form with a single CBD (411β) [1]: > 10 fold
Substance: CBD-fused laminin 411E8 fragment 411βγ (from UniProt Q16363 629-1449)

fold binding activity against the form with a single CBD (521β) [1]: > 10 fold
Substance: CBD-fused laminin 521E8 fragment 521βγ (from UniProt O15230 2534-3327)
